Assay results taken from patent US20210388068A1 (UNIVERSITY OF MASSACHUSETTS, published 2021).

T1: N-terminal adhesin domain of CfaE fused to maltose-binding protein (MBP-CfaE-N) (enterotoxigenic Escherichia coli (ETEC), UniProt P25734 23-200)
T1 construct: domain: N-terminal adhesin domain; expressed in SHuffle T7 E. coli and purified on amylose resin; also called recombinant CfaE-N; wild-type CfaE; not shown: donor strand complement included as in Poole et al. 2007
T1 sequence (looked up): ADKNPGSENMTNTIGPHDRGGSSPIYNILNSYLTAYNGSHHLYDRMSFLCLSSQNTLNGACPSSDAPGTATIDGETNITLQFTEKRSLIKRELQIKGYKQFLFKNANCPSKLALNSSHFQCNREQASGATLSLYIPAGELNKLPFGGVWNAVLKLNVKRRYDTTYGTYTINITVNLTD

B1: anti-CfaE HuMab 68-61 (antibody, human IgG1, V domains shown)
VH: QVQLVQSGAEVKNPGSSVRVSCEASGGTFSSFAISWVRQAPGQGLEWMGRIIPILDIVKYAQRFQGRVTISADKSTSTAYMELSSLRSEGTAVYYCARDDIAGSDFDIWGQGTMVTVSS
VL: DIQMTQSPSSLSASVGDRVTITCRASQGISSWLAWYQQKPEKAPKSLIYAASSLQSGVPSRFSGSGSGTDFTLTISSLQPEDFATYYCQQYTSYPYTFGQGTKLEIK
notes: also called 068-61
B2: anti-CfaE HuMab 68-48 (antibody, human IgG1, V domains shown)
VH: QVQLQQWGAGLLKPSETLSLTCAVYGGSFSGYSWSWIRQSPGKGLEWIGEIYHSGSTNYNPSLKSRVTISGDTSKNQFSLKLSSVTAADTAVYYCARENLQGYYYYGMDVWGQGTTVTVSS
VL: AIQLTQSPSSLSASVGDRVTITCRASQGISSSLAWYQQKPGKAPKLLIYDASSLESGVPSRFSGSGSGTDFTLTISSLQPEDFATYYCQQFNSYPRTFGQGTKVEIK
notes: also called 068-48
B3: anti-CfaE HuMab 68-90 (antibody, human IgG1, V domains shown)
VH: QVQLQQWGAGLLKPSETLSLTCAVYGGSFSAYYWSWIRQPPGKGLEWIGEINHSGNTNYNPSLESRVTISVDTSKNQVSLKQSSVTAADTAVYYCARNWGPNAFDIWGRGTMVTVSS
VL: DIQMTQSPSSVSASVGDRVTITCRASQDITSWLVWYQHKPGKAPKLLIYAASSLQSGVPSRFSGSGSGTDFTLTISSLQPEDFATYYCQQANIFPYTFGQGTKLEIK
notes: also called 068-90

Columns and labels:
[1] = biological target: T1, N-terminal adhesin domain of CfaE fused …; experiment: ELISA on plate-bound MBP-CfaE-N, anti-human IgG Fc-AP, OD405
Text: FIG. 1A is a graph showing concentration-dependent binding of anti-CfaE antibodies as measured by ELISA. IgG bound to immobilized recombinant CfaE-N was detected with an anti-human IgG Fc-chain-specific alkaline phosphatase-conjugated antibody. Error bars represent the range in OD values observed in two independent experiments. The binding curves of the ten anti-CfaE antibodies are superimposed.
(§1) For binding activity of purified HuMAbs against CfaE, 96-well plates (Nunc) were coated overnight at 4° C. with 2 μg/mL of purified MBP-CfaE-N. Plates were blocked with 1% BSA+0.05% Tween 20 in PBS. Purified HuMabs were diluted in 1×PBS+0.1% Tween 20 and added to plates for 1 hour. Plates were stained with alkaline phosphatase-conjugated goat anti-human IgG Fcγ (Jackson ImmunoResearch Laboratories) (1:1,000) for 1 hour and developed using p-nitrophenyl phosphate (ThermoFisher Scientific).

[2] = biological target: T1, N-terminal adhesin domain of CfaE fused …; experiment: ELISA on plate-bound wild-type MBP-CfaE-N, OD405
Description: as §1
To define the antibody-binding epitope, putative antibody-antigen interaction models were established based on a previously resolved CfaE structure (PDB ID 2Hb0) and the HuMab antibody sequences using an antibody modeling program, BioLuminate (Schrodinger). This software suite develops models of antibody structures from their sequences, followed by computational docking to identify high-confidence antibody-antigen complex models. Based on these models, the software identified potential residues critical for binding interaction. The effect of these residues on the binding activity of the HuMAbs was analyzed by experimental alanine scanning followed by ELISA. […] The R67A mutation eliminated binding activity of HuMab 68-51 and 68-97 (FIG. 3B), while the Y183A mutation affected binding activity of HuMab 68-51, 68-97, 68-90, 67-102, and 840-53 (FIG. 3E). […] T91A mutation eliminated binding activity of HuMAb 840-53 and reduced binding activities of HuMAbs 68-51, 68-61, 840-53 and 68-48 (FIG. 3C). N127A mutation eliminated binding activity of HuMAb 68-61 and reduced binding of HuMAbs 68-48 and 68-6 (FIG. 3F). All mutations were found on the surface exposed loops of the N-terminal domain of the CfaE (FIG. 3G). No residues involved in the binding of MAb 68-75 to CfaE were identified.

[3] = biological target: T2, MBP-CfaE-N Tyr183Ala mutant (enterotoxigenic Escherichia coli); experiment: ELISA on plate-bound MBP-CfaE-N Tyr183Ala mutant, OD405
T2 construct: tag;N-terminal adhesin domain; not in the list MOLECULES; also called Y183A
Description: as §1
To define the antibody-binding epitope, putative antibody-antigen interaction models were established based on a previously resolved CfaE structure (PDB ID 2Hb0) and the HuMab antibody sequences using an antibody modeling program, BioLuminate (Schrodinger). This software suite develops models of antibody structures from their sequences, followed by computational docking to identify high-confidence antibody-antigen complex models. Based on these models, the software identified potential residues critical for binding interaction. The effect of these residues on the binding activity of the HuMAbs was analyzed by experimental alanine scanning followed by ELISA. […] The R67A mutation eliminated binding activity of HuMab 68-51 and 68-97 (FIG. 3B), while the Y183A mutation affected binding activity of HuMab 68-51, 68-97, 68-90, 67-102, and 840-53 (FIG. 3E). […]

Binder | EC50 (read off the curve) [1] | EC50 (read off the curve) [2] | EC50 (read off the curve) [3]
B1 | ~0.03 µg/mL | ~0.03 µg/mL | ~0.01 µg/mL
B2 | ~0.03 µg/mL | ~0.03 µg/mL | ~0.01 µg/mL
B3 | ~0.03 µg/mL | ~0.03 µg/mL | 
